Laboratory results taken from publication PMC2766932 (Biochemistry, 2009).

T1: MBP-3 Q243A
T1 chain: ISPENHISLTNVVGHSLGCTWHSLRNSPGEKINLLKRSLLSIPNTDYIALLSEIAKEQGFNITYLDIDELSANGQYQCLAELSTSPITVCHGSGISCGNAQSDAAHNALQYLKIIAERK

T2: MBP-3 D262A
T2 chain: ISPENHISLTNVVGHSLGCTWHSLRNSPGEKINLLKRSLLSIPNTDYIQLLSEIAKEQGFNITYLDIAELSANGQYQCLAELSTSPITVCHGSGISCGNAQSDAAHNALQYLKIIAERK

B1: PKR (K296R)-FLAG (enzyme, UniProt P19525 1-551, looked up)
chain: MAGDLSAGFFMEELNTYRQKQGVVLKYQELPNSGPPHDRRFTFQVIIDGREFPEGEGRSKKEAKNAAAKLAVEILNKEKKAVSPLLLTTTNSSEGLSMGNYIGLINRIAQKKRLTVNYEQCASGVHGPEGFHYKCKMGQKEYSIGTGSTKQEAKQLAAKLAYLQILSEETSVKSDYLSSGSFATTCESQSNSLVTSTLASESSSEGDFSADTSEINSNSDSLNSSSLLMNGLRNNQRKAKRSLAPRFDLPDMKETKYTVDKRFGMDFKEIELIGSGGFGQVFKAKHRIDGKTYVIRRVKYNNEKAEREVKALAKLDHVNIVHYNGCWDGFDYDPETSDDSLESSDYDPENSKNSSRSKTKCLFIQMEFCDKGTLEQWIEKRRGEKLDKVLALELFEQITKGVDYIHSKKLIHRDLKPSNIFLVDTKQVKIGDFGLVTSLKNDGKRTRSKGTLRYMSPEQISSQDYGKEVDLYALGLILAELLHVCDTAFETSKFFTDLRDGIISDIFDKKEKTLLQKLLSKKPEDRPNTSEILRTLTVWKKSPEKNERHTC

Assays:
Experiment in all cases: pull-down
MBP-3 D260A = target: MBP-3 D260A
MBP-3 S246D = target: MBP-3 S246D
MBP-3 S279A = target: MBP-3 S279A
MBP-3 S287A = target: MBP-3 S287A
MBP-3 S287D = target: MBP-3 S287D
MBP-3 Q243A = target: T1, MBP-3 Q243A
MBP-3 D262A = target: T2, MBP-3 D262A

Molecule | PKR bound, percent of wt MBP-3 (MBP-3 D260A) [%] | PKR bound, percent of wt MBP-3 (MBP-3 S246D) [%] | PKR bound, percent of wt MBP-3 (MBP-3 S279A) [%] | PKR bound, percent of wt MBP-3 (MBP-3 S287A) [%] | PKR bound, percent of wt MBP-3 (MBP-3 S287D) [%] | PKR bound, percent of wt MBP-3 (MBP-3 Q243A) [%] | PKR bound, percent of wt MBP-3 (MBP-3 D262A) [%]
PKR (K296R)-FLAG (from UniProt P19525 1-551) (enzyme) | 63 | 100 | 23 | 59 | 95 | – | –
B1 | – | – | – | – | – | 9 | 2
